Measurements from patent US20150240222A1.
pKd: −log10 of the molar value.

Tests used:
FITC-casein [1] = experiment: fluorescence polarization, 6 nM FITC-casein with 0-5 uM Hsp104, 2 mM ATPgS, 25 C
FITC-casein [2] = experiment: cell-based or functional assay

pKd (FITC-casein [1]) | Km of FITC-casein degradation (translocation into ClpP), initial rates against FITC-casein concentration (FITC-casein [2]) [µM] | Substance
7.19 |  | Hsp104WT (from UniProt P31539 1-908)
7.10 |  | Hsp104A503V (from UniProt P31539 1-908)
 | 2.88 | HAPWT (from UniProt P31539 1-908)
 | 1.29 | HAPA503V (from UniProt P31539 1-908)
